This note sets out measurements from article PMC8955265 (2022).

Where no end group is shown, it is not given here. [ ]: non-standard residue; d: D form. pT = C[C@@H](OP(=O)(O)O)[C@H](N)C(=O)O; pS = N[C@@H](COP(=O)(O)O)C(=O)O; CF = carboxyfluorescein

Test [1] concerns the target T1, Skp1-FBXW7 complex (human, UniProt P63208 1-149; Q969H0 263-707). The test can be described thus: FP; competition, unlabeled peptide.
For test [2], the target named is T1, Skp1-FBXW7 complex. The test can be described thus: FP; direct titration.

T1 sequence (P63208 1-149, chain 1 of 2): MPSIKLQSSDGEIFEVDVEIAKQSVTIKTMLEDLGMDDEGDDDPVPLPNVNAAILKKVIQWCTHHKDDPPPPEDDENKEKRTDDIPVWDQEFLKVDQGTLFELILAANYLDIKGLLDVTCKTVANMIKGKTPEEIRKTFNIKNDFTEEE
T1 sequence (Q969H0 263-707, chain 2 of 2): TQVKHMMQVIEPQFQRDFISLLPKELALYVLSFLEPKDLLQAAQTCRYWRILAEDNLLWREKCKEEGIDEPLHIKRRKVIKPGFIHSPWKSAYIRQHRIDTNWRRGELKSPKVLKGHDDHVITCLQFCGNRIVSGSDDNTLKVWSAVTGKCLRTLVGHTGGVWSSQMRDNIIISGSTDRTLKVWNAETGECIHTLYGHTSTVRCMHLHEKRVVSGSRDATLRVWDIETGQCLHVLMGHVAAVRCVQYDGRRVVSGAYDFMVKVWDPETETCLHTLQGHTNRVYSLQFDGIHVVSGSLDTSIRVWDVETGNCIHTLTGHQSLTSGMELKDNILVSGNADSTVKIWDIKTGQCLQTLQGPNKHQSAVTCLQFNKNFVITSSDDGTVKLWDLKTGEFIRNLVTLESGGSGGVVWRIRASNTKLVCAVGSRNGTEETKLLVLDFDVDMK

Regarding PSGLL[pT]PPQ[pS]GKKQ (also: N-terminal carboxyfluorescein on the labelled probe form) [CCNE], the dissociation constant (Kd) with Skp1-FBXW7 complex [1] worked out at 15.9 nM.
The molecule {CF}-PSGLL[pT]PPQ[pS]GKKQ [carboxyfluorescein (CF) labeled CCNE peptide (CF-PSGLLpTPPQpSGKKQ)] had an equilibrium dissociation constant (Kd) with Skp1-FBXW7 complex [2] of 2.8 nM.

A word on the Kd: it is the concentration at which binding is half-saturated. A high value points to a looser complex.
